EP3964526A1

Tests used:
[1] = biological target: recombinant human TNF (hTNF) (human) (UniProt P01375); experiment: cell-based or functional assay; settings: scale: ratio EC50 ESBA105 / EC50 test, in mass units [ng/ml]
[2] = biological target: VEGF (as used in the VEGFR competition ELISA); experiment: competition ELISA against hVEGR1, EC50 ratio to reference Luc
[3] = biological target: recombinant human VEGF165 (PeproTech EC Ltd.) (human) (UniProt P15692); experiment: SPR BIAcore T100, hVEGF165 amine-coupled on CM4 chip, scFv as analyte
Sequence of recombinant human VEGF165 (PeproTech EC Ltd.) (human) (P15692 other isoform, or with tags, fused parts or gaps limits assumed): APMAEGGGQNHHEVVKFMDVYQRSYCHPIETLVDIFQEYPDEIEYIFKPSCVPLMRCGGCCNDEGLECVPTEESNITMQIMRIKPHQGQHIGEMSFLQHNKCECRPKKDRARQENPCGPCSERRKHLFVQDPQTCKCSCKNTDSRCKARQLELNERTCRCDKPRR

Sequence of recombinant human TNF (hTNF) (human) (P01375 77-233 limits assumed): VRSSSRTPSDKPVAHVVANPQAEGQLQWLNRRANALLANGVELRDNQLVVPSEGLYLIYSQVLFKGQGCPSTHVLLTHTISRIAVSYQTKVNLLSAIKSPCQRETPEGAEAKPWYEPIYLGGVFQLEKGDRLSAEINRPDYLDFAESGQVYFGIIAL
Sequence of VEGF (as used in the VEGFR competition ELISA) (P15692 whole entry): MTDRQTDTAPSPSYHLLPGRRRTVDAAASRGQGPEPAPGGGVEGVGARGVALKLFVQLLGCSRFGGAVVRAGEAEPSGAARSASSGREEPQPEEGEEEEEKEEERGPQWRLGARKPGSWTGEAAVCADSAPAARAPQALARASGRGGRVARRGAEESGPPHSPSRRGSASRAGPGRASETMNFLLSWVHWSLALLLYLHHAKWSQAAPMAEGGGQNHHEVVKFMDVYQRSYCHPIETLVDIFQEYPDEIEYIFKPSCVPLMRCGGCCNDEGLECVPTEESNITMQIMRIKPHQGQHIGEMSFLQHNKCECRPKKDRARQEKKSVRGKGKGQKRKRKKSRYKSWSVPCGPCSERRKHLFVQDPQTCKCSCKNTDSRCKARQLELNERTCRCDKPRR

Binder	L929* [EC50-E105 / EC50-X] [1]	other results
EP6_max (scFv, from another filing) scFv: EIVMTQSPSTLSASVGDRVIITCQASESIYSGLAWYQQKPGKAPKLLIYQASTLASGVPSRFSGSGSGTDFTLAISSLQPDDFATYYCQQGFGTSNVENPFGQGTKLTVLGGGGGSGGGGSGGGGSGGGGSEVQLVESGGGLVQPGGSLRLSCTVSGFSLSRYGVSWVRQAPGKGLEWVGTIGEAGRAYYANWARSRSTISRDTSKNTVYLQMNSLRAEDTAVYYCARGEVFNNGWGAFNIWGQGTLVTVSS	1.1	
EP15_max (scFv, from another filing) scFv: EIVMTQSPSTLSASVGDRVIITCQASENIYTSLAWYQQKPGKAPKLLIYSASTLASGVPSRFSGSGSGTEFTLTISSLQPDDFATYYCQQGFATSNVENPFGQGTKLTVLGGGGGSGGGGSGGGGSGGGGSEVQLVESGGGSVQPGGSLRLSCTVSGFSLSRYGVSWVRQAPGKGLEWVGAIGETGRAYYANWAKSRSTISRDTSKNTVYLQMNSLRAEDTATYYCARGEEFNNGWGAFNIWGQGTTVTVSS	0.39	
EP34_max (scFv, from another filing) scFv: EIVMTQSPSTLSASLGDRVIITCQSSQSVYGNIWMAWYQQKSGKAPKLLIYQASKLASGVPSRFSGSGSGAEFSLTISSLQPDDFATYYCQGNFNTGDRYAFGQGTKLTVLGGGGGSGGGGSGGGGSGGGGSEVQLVESGGGLVQPGGSLRLSCTASGFTISRSYWICWVRQAPGKGLEWVACIYGDNDITPLYANWAKGRFPVSTDTSKNTVYLQMNSLRAEDTAVYYCARLGYADYAYDLWGQGTLVTVSS	10.5	
EP35_max (scFv, from another filing) scFv: EIVMTQSPSTLSASVGDRVIITCQASQSISNLLAWYQQKPGKAPKLLIVAASKLASGVPSRFSGSGSGTEFTLTISSLQPDDFATYYCQQGWSHTNVDNTFGQGTKLTVLGGGGGSGGGGSGGGGSGGGGSEVQLVESGGGSVQPGGSLRLSCTASGFSFSVGYWICWVRQAPGKGLEWVACIDAGTSGGTYYATWAKGRFTISKDTSKNTVYLQMNSLRAEDTATYYCARGVSSNGYYFKLWGQGTTVTVSS	5.2	
EP43_max (scFv, from another filing) scFv: EIVMTQSPSTLSASVGDRVIIKCQASQSISDWLAWYQQKPGKAPKLLIYGASRLASGFPSRFSGSGSGAEFTLTISGLEPADFATYYCQQGWSDSYVDNLFGQGTKLTVLGGGGGSGGGGSGGGGSGGGGSEVQLVESGGGLVQPGGSLRLSCTVSGFSLSSGAMSWVRQAPGKGLEWVGVIISSGATYYASWAKGRFTISKDTSKNTVYLQMNSLRAEDTAVYYCARGGPDDSNSMGTFDPWGQGTLVTVSS	6.4	
509-maxll (scFv, from another filing) scFv: EIVMTQSPSTLSASVGDRVIITCQASQNIRIWLSWYQQKPGKAPKLLIYKASTLESGVPSRFSGSGSGTEFTLTISSLQPDDFATYYCQNNAHYSTNGGTFGQGTKLTVLGGGGGSGGGGSGGGGSGGGGSEVQLVESGGGLVQPGGSLRLSCTASGFSLSSYYMSWVRQAPGKGLEWVGILDYVGDTDYASWAKGRFTISKDASKNTVYLQMNSLRAEDTAVYYCARTDDSRGWGLNIWGQGTLVTVSS		Rel. activity hVEGR1 comp. ELISA (EC50Luc[nM]/EC50test[nM]) [2]: 0.09; Kd [3]: 3.37 nM; koff [3]: 0.00282 s⁻¹; kon [3]: 838000 M⁻¹ s⁻¹
